Publication PMC4900187

Target: FITC–BID BH3
Test: fluorescence polarisation

Chain of MCL-1ΔNΔC (Q07820 172-327, stated change not applied): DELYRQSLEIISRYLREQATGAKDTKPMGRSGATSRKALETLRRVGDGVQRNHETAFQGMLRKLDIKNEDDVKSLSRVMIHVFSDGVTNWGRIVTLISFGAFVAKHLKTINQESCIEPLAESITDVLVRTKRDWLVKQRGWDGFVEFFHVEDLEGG
Chain of MAIM1-derivatized MCL-1ΔNΔC (Q07820 172-327, stated change not applied): as above

EC50 [nM]	Substance
109	MCL-1ΔNΔC C286W (from UniProt Q07820 172-327) (domain or fragment)
85	MAIM1-derivatized MCL-1ΔNΔC (from UniProt Q07820 172-327) (domain or fragment)
21	MCL-1ΔNΔC (from UniProt Q07820 172-327) (domain or fragment)
